How the values were obtained:
GST-C/EBPβ-bZIP (rat) [1] = biological target: T1, GST-C/EBPβ-bZIP (rat) (UniProt P21272); assay: fluorescence anisotropy competition; conditions: 25 mM Tris-HCl pH 7.6, 75 mM NaCl, 150 mM KCl, 5 mM MgCl2, 0.1 mM DTT, 0.01% NP-40, room temperature, 20 min
T1 sequence: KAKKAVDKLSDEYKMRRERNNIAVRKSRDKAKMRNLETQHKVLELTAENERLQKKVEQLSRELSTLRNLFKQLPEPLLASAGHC

GST-C/EBPβ-bZIP (rat) [2] = biological target: T1, GST-C/EBPβ-bZIP (rat); assay: fluorescence anisotropy; conditions: 25 mM Tris-HCl pH 7.6, 75 mM NaCl, 150 mM KCl, 5 mM MgCl2, 0.1 mM DTT, 0.01% NP-40, room temperature, 20 min

Sequence: CCCTGCTTGCATAACAGGCTC (double strand) [HPV18 BS2L competitor]
- Ki (GST-C/EBPβ-bZIP (rat) [1]): 154 nM

Sequence: CCCTGATTGCGCAATAGGCTC (double strand) [Consensus C/EBPβ competitor]
- Ki (GST-C/EBPβ-bZIP (rat) [1]; vs 15 nM BS1 probe, 125 nM protein): 27 nM

Sequence: CCCTGCTTACACAATAGGCTC (double strand) [BS1 competitor]
- Ki (GST-C/EBPβ-bZIP (rat) [1]): 83 nM

Sequence: CCCTGATTGCAAAATAGGCTC (double strand) [BS2 competitor]
- Ki (GST-C/EBPβ-bZIP (rat) [1]): 66 nM

Sequence: TTTGGCTTACACAATTGCTTT (double strand) [BS1 probe]
- Kd (GST-C/EBPβ-bZIP (rat) [2]): 62 nM
